According to article PMC5477490:

Assays:
[1] = target: HA ectodomain of A/Washington/05/2011(H1N1) (influenza A virus A/Washington/05/2011(H1N1)); experiment: crystal structure
[2] = target: HA ectodomain of A/Washington/05/2011(H1N1) (influenza A virus A/Washington/05/2011(H1N1)); experiment: not stated; purified HA ectodomain in solution; data in Supplementary Fig. 2
[3] = target: 3E1 Fab, P01857;P01834; conditions: parent: est. 100; read off a plot

Substance	stoichiometry N [1]	stoichiometry N [2]	percent of parent [3]
HA ectodomain of A/Washington/05/2011(H1N1) (domain or fragment)	3	3	–
full-length, wild-type HA from A/Washington/05/2011 (H1N1) HA1:H18Q	–	–	1%
full-length, wild-type HA from A/Washington/05/2011 (H1N1) HA1:NAT	–	–	2%
full-length, wild-type HA from A/Washington/05/2011 (H1N1) HA2:D19N	–	–	7%
full-length, wild-type HA from A/Washington/05/2011 (H1N1) HA2:I45F	–	–	1%
